Changes are numbered by the printed parent chain. Names and notes keep the numbering of the source. “Also recorded” adds a separate entry of the source.
Assays:
[1] = molecular target: T1, His-tagged wild-type dUSP (Drosophila melanogaster, UniProt P20153); test: Intrinsic tryptophan fluorescence ligand-binding assay, wild-type dUSP; details: excitation 290 nm, emission 340 nm; 0.5 μm receptor
T1 construct: His tag; made in house; host or cells: bacteria (pET32EK vector)
T1 sequence (P20153 1-508): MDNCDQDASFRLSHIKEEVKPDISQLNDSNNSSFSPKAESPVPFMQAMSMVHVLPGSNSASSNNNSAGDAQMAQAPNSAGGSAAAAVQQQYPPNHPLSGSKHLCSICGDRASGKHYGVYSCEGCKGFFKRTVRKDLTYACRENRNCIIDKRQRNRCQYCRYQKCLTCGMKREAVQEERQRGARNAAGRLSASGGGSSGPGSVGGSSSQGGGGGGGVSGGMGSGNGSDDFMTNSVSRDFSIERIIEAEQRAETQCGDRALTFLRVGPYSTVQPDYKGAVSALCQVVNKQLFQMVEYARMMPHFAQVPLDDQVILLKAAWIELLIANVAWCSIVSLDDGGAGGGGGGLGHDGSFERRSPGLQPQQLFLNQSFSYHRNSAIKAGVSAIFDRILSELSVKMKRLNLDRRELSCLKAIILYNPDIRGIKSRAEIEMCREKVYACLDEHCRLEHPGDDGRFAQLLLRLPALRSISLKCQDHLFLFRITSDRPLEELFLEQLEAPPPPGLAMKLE
Description: The homodimer-enriched fraction of bacterial recombinant His-dUSP fusion protein was purified by nickel resin selection, elution with imidazole, centrifugal concentration, and then gel permeation chromatography (Superdex 200) with procedures and chemical sources exactly as already described previously Jones et al. (2000) Insect Biochem. Mol. Biol. 30, 671-679. The homodimer-enriched fraction of the purified His-USP fusion protein was raised to 2 ml of NaCl and a final concentration of 0.5 μm. For a fluorescence-based ligand-binding assay based on intrinsic tryptophan fluorescence Jones et al. (2001) Insect Biochem. Mol. Biol. 32, 33-49; Jones et al (1998) Biochem. J. 335, 79-84; 79-84; Jones et al. (2000) Biochem. J. 346, 233-240; Jones et al (1997) Proc. Natl. Acad. Sci. USA 94, 13499-13503, ligand or ethanol carrier was added and the receptor preparation excited at 290 nm and monitored for emission at 340 nm, until the signal from the receptor had stabilized. Fluorescence was measured three times for each sample, with standard deviation typically smaller than the graphical plotted datum point. Each fluorescence experiment was replicated on three or more independent occasions, each time with similar results.
The ability of the wild-type dUSP and dominant negative, ligand-binding pocket mutant dUSP to bind methyl epoxyfarnesoate was tested.

[2] = tested on: DR12 motif; test: Electrophoretic mobility shift assay of recombinant dUSP on DR12 probe; assay type: binding; details: 500 nm His-tagged receptor
Source text: Nuclear extracts were isolated from Sf9 cells as previously described Jones et al. (2001) Insect Biochem. Mol. Biol. 32, 33-49; Jones et al (1998) Biochem. J. 335, 79-84; 79-84; Jones et al. (2000) Biochem. J. 346, 233-240. For the DR12 probe, the double stranded DR12 oligonucleotide (sequence as shown above) was 5′ end-labelled with ^32P by T4 polynucleotide kinase (New England Biolabs Inc.), and then purified from a 20% native polyacrylamide gel. The same double stranded DR12 oligonucleotide was used in 100-fold excess as a self competitor. For the 4DR12Core probe, the 4DR12Core sequence was liberated from the vector as a 148-bp ClaI/HindIII fragment, and was 5′ end-labelled with ^32P and purified. The same, unlabelled fragment was used at 100-fold excess as a self competitor. As a negative control for specificity in gel shifts, the 36 bp BglII/KpnI polylinker region fragment of the pGL3 vector was liberated and recovered from low melting point agarose gels and used as a 100 nonself competitor (sequence: […], SEQ ID NO: 17). […]
In addition, both receptor preparations bound to the probe similarly in part as monomer and in part as homodimer. […] Thus, any difference detected in ligand binding of the two receptors is most reasonably inferred as arising from differences in the architecture inside the cavity of the ligand-binding pocket due to the C472A/H475L point mutations.

[3] = tested on: 4DR12Core reporter promoter in Sf9 cells (endogenous USP); test: Dominant negative activity of transfected dUSP mutants on methyl epoxyfarnesoate activation of 4DR12Core reporter in Sf9 cells; assay type: cell-based, Spodoptera frugiperda; details: for dominant negative effect on methyl epoxyfarnesoate-induced activation of 4DR12Core promoter: receptor overexpressed in Sf9 cells, 75 μm methyl epoxyfarnesoate; for Dominant Negative Activity: Table 1, mutants envisioned
Source text: In another embodiment, mutant nuclear hormone receptors disclosed herein comprise amino acid substitutions that render the mutant to act as a “dominant negative.” Dominant negative proteins exploit protein-protein interactions, i.e., the interactions between a mutated protein produced by a transgene and the related native protein inside the cell. The mutant protein forms a dimer with an integral part of a wild type endogenous protein molecule. The mutant protein interacts with a whole range of native compatible gene products. Preferably, the mutant homodimerizes or heterodimerizes with an endogenous wild type partner to form a complex following ligand or independent of ligand binding. Preferably, as opposed to a complex of wild type monomers, a complex of a mutant and its endogenous wild type partner will be incapable of initiating transcription at a hormone receptor response reporter gene. Assays for determining dominant negative activity may be found in Examples 6 and 7 as well as FIG. 4.
Spodoptera frugiperda cell line, Sf9, was maintained and transfected as described previously Jones et al (1998) Biochem. J. 335, 79-84; Jones et al. (2000) Biochem. J. 346, 233-240. As an internal control to compare activities of different constructs, 0.3 μg of a constituitive heat-shock promoter-driven β-galactosidase gene was cotransfected. To study the role of USP in activation of the nuclear hormone receptor response element fused to core promoter in methyl epoxyfarnesoate-treated cells, cloned D. melangaster USP (dUSP) cDNA and its derivatives containing mutations in the ligand-binding pocket were cotransfected with the reporter and internal control plasmids. […] After 48 h of the treatment, the cells were harvested and the activity of the luciferase reporter was measured using a luciferase assay kit (Promega) in a multipurpose scintillation counter (Beckman, Fullerton, Calif.). β-Galactosidase activity was measured using chlorophenol red-[…] monosodium (CPRG; Roche Molecular Biochemicals) as a colorimetric substrate.
His-tagged dUSP dominant negative double mutant Cys472Ala/His475Leu (C472A/H475L) was over expressed in methyl epoxyfarnesoate-treated Sf9 cells that were cotransfected with the 4DR12Core reporter plasmid.
Under the model that overexpression of the C472A/H475L double mutant competed with endogenous USP in the pathways for transduction of the exogenous methyl epoxyfarnesoate signal, the level of effect of the double mutant ought to be dependent on its dose. […] This background of the blocked activation pathway was used to test whether activation by methyl epoxyfarnesoate treatment was actually dependent on the presence of wild-type USP. […] Again, over the range of the monotonic restoration of methyl epoxyfarnesoate-activated transcription, there was no effect of the transfected wild-type dUSP on the basal level of transcription in EtOH-treated controls.

Molecule: CC(C)=CCCC(C)=CCCC(C)=CCO [farnesol]
- effect on receptor intrinsic fluorescence (ligand binding), wild-type dUSP [1]: do not have that effect

B1: C472A/H475L: dUSP ligand-binding pocket double mutant, alanine at 472 and leucine at 475 (protein)
chain: T1 sequence (P20153 1-508) with C472A, H475L
- binding to DR12 motif in gel shift [2]: similarly bound to a DR12 motif
- dominant negative effect on methyl epoxyfarnesoate-induced activation of 4DR12Core promoter [3]: distinct suppression; also recorded: progressive suppression

B2: wild-type dUSP: wild type Drosophila melanogaster Ultraspiracle receptor, SEQ ID NO: 2 (protein)
chain: T1 sequence (P20153 1-508)
modifications: Drosophila melanogaster
- binding to DR12 motif in gel shift [2]: similarly bound to a DR12 motif

B3: P498W/P499W/W318F: USP mutant, tryptophan at 498 and 499, phenylalanine at 318 (protein)
chain: T1 sequence (P20153 1-508) with W318F, P498W, P499W
- Dominant Negative Activity [3]: Weak Activity

B4: W318F/W328F: USP mutant, phenylalanine at positions 318 and 328 (protein)
chain: T1 sequence (P20153 1-508) with W318F, W328F
- Dominant Negative Activity [3]: Weak Activity

B5: W328F: USP mutant, phenylalanine at position 328 (protein)
chain: T1 sequence (P20153 1-508) with W328F
- dominant negative effect on methyl epoxyfarnesoate-induced activation of 4DR12Core promoter [3]: not a dominant negative

B6: P498W/P499W/W318F/W328F: USP mutant, tryptophan at 498 and 499, phenylalanine at 318 and 328 (protein)
chain: T1 sequence (P20153 1-508) with W318F, W328F, P498W, P499W
- Dominant Negative Activity [3]: Weak Activity

B7: P498W/P499W: USP mutant, two prolines at end of α-helix 12 replaced with tryptophan (protein)
chain: T1 sequence (P20153 1-508) with P498W, P499W
- dominant negative effect on methyl epoxyfarnesoate-induced activation of 4DR12Core promoter [3]: not a dominant negative

B8: W318F: USP mutant, phenylalanine at position 318 (protein)
chain: T1 sequence (P20153 1-508) with W318F
- Dominant Negative Activity [3]: Weak Activity
- dominant negative effect on methyl epoxyfarnesoate-induced activation of 4DR12Core promoter [3]: weak dominant negative

B9: Q288A: dUSP mutant, Gln288 mutated to alanine (protein)
chain: T1 sequence (P20153 1-508) with Q288A
- dominant negative effect on methyl epoxyfarnesoate-induced activation of 4DR12Core promoter [3]: acted as a dominant negative suppressor
